B1: 365_F05 (antibody, V domains shown)
VH: EVQLLESGGGLVQPGGSLRLSCAASGFTFSSYGMNWVRQAPGKGLEWVASINYNGGYTSYADSVKGRFTISRDNSKNTLYLQMNSLRAEDTAVYYCARGATWHDTHLDYWGQGTLVTVSS
VL: DIQMTQSPSSLSASVGDRVTITCRASQSIVTYVNWYQQKPGKAPKLLIYAATSRASGVPSRFSGSGSGTDFTLTISSLQPEDFATYYCQQSYETPLTFGGGTKVEIK
B2: 367_D05 (antibody, V domains shown)
VH: EVQLLESGGGLVQPGGSLRLSCAASGFTFSDYSMNWVRQAPGKGLEWVSSINYNGGYKSYADSVKGRFTISRDNSKNTLYLQMNSLRAEDTAVYYCARGATWHDTHLDYWGQGTLVTVSS
VL: DIQMTQSPSSLSASVGDRVTITCRASQSIISYVNWYQQKPGKAPKLVIYAATSLASGVPSRFSGSGSGTDFTLTISSLQPEDFATYYCQQSYDSPLTFGGGTKVEIK
B3: 367_C08 (antibody, V domains shown)
VH: EVQLLESGGGLVQPGGSLRLSCAASGFTFDSYSMHWVRQAPGKGLEWVAGINYNGGYTSYADSVKGRFTISRDNSKNTLYLQMNSLRAEDTAVYYCARGATWHDTHLDYWGQGTLVTVSS
VL: DIQMTQSPSSLSASVGDRVTITCRASQSILTYLNWYQQKPGKAPKLLIYAATSLASGVPSRFSGSGSGTDFTLTISSLQPEDFATYYCQQSDSNPLTFGGGTKVEIK
B4: 366_D08 (antibody, V domains shown)
VH: EVQLLESGGGLVQPGGSLRLSCAASGFTFSSYGMHWVRQAPGKGLEWVSNINYNGGYKSYADSVKGRFTISRDNSKNTLYLQMNSLRAEDTAVYYCARGATWHDTHLDYWGQGTLVTVSS
VL: DIQMTQSPSSLSASVGDRVTITCRASQSILSYVNWYQQKPGKAPKLVIYAATSLASGVPSRFSGSGSGTDFTLTISSLQPEDFATYYCQQSYENPLTFGGGTKVEIK
B5: 367_D09 (antibody, V domains shown)
VH: EVQLLESGGGLVQPGGSLRLSCAASGFTFDSYGMNWVRQAPGKGLEWVASINYNGGYKSYADSVKGRFTISRDNSKNTLYLQMNSLRAEDTAVYYCARGATWHDTHLDYWGQGTLVTVSS
VL: DIQMTQSPSSLSASVGDRVTITCRASQSILTYLNWYQQKPGKAPKLLIYAATSLASGVPSRFSGSGSGTDFTLTISSLQPEDFATYYCQQSYDNPLTFGGGTKVEIK
B6: 366_G09 (antibody, V domains shown)
VH: EVQLLESGGGLVQPGGSLRLSCAASGFTFDDYSMNWVRQAPGKGLEWVASINYNSGYTGYADSVKGRFTISRDNSKNTLYLQMNSLRAEDTAVYYCARGATWHDTHLDYWGQGTLVTVSS
VL: DIQMTQSPSSLSASVGDRVTITCRASQSILSYVNWYQQKPGKAPKLVIYAATSRASGVPSRFSGSGSGTDFTLTISSLQPEDFATYYCQQSYDLPLTFGGGTKVEIK
B7: 367_A02 (antibody, V domains shown)
VH: EVQLLESGGGLVQPGGSLRLSCAASGFTFDSYGMNWVRQAPGKGLEWVSSINYNSGYKGYADSVKGRFTISRDNSKNTLYLQMNSLRAEDTAVYYCARGATWHDTHLDYWGQGTLVTVSS
VL: DIQMTQSPSSLSASVGDRVTITCRASQSIISYLNWYQQKPGKAPKLLIYAVTSRASGVPSRFSGSGSGTDFTLTISSLQPEDFATYYCQQSYDTPLTFGGGTKVEIK
B8: 367_B06 (antibody, V domains shown)
VH: EVQLLESGGGLVQPGGSLRLSCAASGFTFSSYSMNWVRQAPGKGLEWVANINYNGGYTGYADSVKGRFTISRDNSKNTLYLQMNSLRAEDTAVYYCARGATWHDTHLDYWGQGTLVTVSS
VL: DIQMTQSPSSLSASVGDRVTITCRASQSIISYVNWYQQKPGKAPKLVIYAATSLHSGVPSRFSGSGSGTDFTLTISSLQPEDFATYYCQQSYNSPLTFGGGTKVEIK

For this assay, the target named is Human Fc (human). The assay is described as follows: ELISA; negative control.
B1 registered an optical density of 0.376 OD.

B2 registered an optical density of 0.265 OD.

For B3, the optical density stood at 0.278 OD.

Molecule B4 displayed an optical density of 0.312 OD.

Molecule B5 registered an optical density of 0.381 OD.

Turning to B6, the optical density was 0.291 OD.

Take B7: the optical density worked out at 0.305 OD.

The molecule B8 displayed an optical density of 0.378 OD.

Source of the values: patent US20210380703A1.
